The values that follow are results of earlier work, collected in article PMC4340714.

The target in this data set is Mst2 kinase domain (Homo sapiens) (UniProt Q13188).
Sequence of UniProt Q13188 (Q13188 27-278): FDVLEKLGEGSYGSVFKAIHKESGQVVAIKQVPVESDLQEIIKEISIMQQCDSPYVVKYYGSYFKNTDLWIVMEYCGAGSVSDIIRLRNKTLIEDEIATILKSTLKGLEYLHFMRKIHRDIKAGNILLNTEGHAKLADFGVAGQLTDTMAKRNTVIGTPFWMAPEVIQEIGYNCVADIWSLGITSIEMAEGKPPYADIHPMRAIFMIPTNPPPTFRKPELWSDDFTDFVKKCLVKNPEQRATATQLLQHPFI

A word on the Kd: it is the equilibrium constant for the complex coming apart. On to “Mst1 kinase domain (from UniProt Q13043)”, for which the Kd was 36 µM.
